Reference: the DeepSol protein solubility set

Assay: soluble on expression in E. coli; label from the status in PepcDB or PDB records

Soluble on expression in E. coli, not soluble:
MGSDKIHHHHHHMTQLPNFSQSLSQLIACPSISSTQPSWDQGNKEVIQLLATWFEQLDFNIEIQAVPNTSNKFNLLAKLGSGEGGLLLAGHSDTVPFDENRWQSNPHTVVNQDDKFFGLGTCDMKGFFAFILQVCKNLRADQLKKPLYILATADEETTMAGARFFAKSQAIKPDVAIIGEPTNLVPVVMHKGHMSHRISVEGKSGHSSKPNLGINAIEIMYKVIGQLIELKEKFQLNYENQAFDVPAPTLNLGAISGGDNANRICGHCHLDIDLRSLPGMSDDELINWLSEALKPLAELYPGRISFEEMHPSSPSFEQKKPSTLIDIAQEISGHSCCAVNYATEAPYIQQLGCQTIVLGPGSIDQAHQPNEFLAHSEIDKTEKLLTKMIQHYCL, MSFLEKLVAKYEPIKEEKPKLVPKPTRKRQPETTEIVVKTRRITRRNAKAPVKEEEIGHQKAQITIVDDEEFMEQPVQEPIEIEEEQQEESHLEIALPEQPNHEPMQSSPSLPRKSFKPDMHPIAKKGGKICIVDLGLTSHTLPTEQTPGFLKRLGENVGGSIDYSYESIDELIRTAPDAWSKASMGAIRGVMLMQELVTERSMHPKSKPMEKNRLLGEEMAKLNPNDFLNHKLLEVSSLDQTVFINVNLVFSALSIQHGSVRSIVNAMSNHWIDYLIPREQQGSFTTSKKTEPLTFFPGDLTNWPAALLAAAIKLDNDQVDVTRLPSVVNMLFKHHIKVRFDHARGLYRTKHDGQNPPKIVLPKRPIIDCTQFYKSSEDIDEEQVPSTSNFQSSSNSLSTSKSAGREHIPDSP, MGSDKIHHHHHHMRSDVIKKGLERVPHRSLLKALGITDDEMRRPFIGIVSSWNEIIPGHVHLDKVVEAVKAGVRMAGGVPFVFPTIGICDGIAMDHRGMKFSLPSRELIADSIEIVASGFPFDGLVFVPNCDKITPGMMMAMGRLNIPSVLISGGPMLAGRYNGRDIDLITVFEAVGGYKVGKVDEETLKAIEDLACPGAGSCAGLFTANTMNSLAEALGIAPRGNGTVPAVHAKRLRMAKEAGMLVVELVKRDVKPRDIVTLDSFMNAVMVDLATGGSTNTVLHLKAIAESFGIDFDIKLFDELSRKIPHICNISPVGPYHIQDLDDAGGIYAVMKRLQENGLLKEDVMTIYLRKIGDLVREAKILNEDVIRPFDNPYHKEGGLGILFGNLAPEGAVAKLSGVPEKMMHHVGPAVVFEDGEEATKAILSGKIKKGDVVVIRYEGPKGGPGMREMLSPTSAIVGMGLAEDVALITDGRFSGGSHGAVIGHVSPEAAEGGPIGIVKDGDLIEIDFEKRTLNLLISDEEFERRMKEFTPLVKEVDSDYLRRYAFFVQSASKGAIFRKP, MGSDKIHHHHHHMSKLFDCITDELQDFIAAQHLFFVGSAPLSPTGHVNLSPKGLGCFRVLSPKQVGYVDLTGSGNETSAHLQENGRITFMFCAFEEPACILRLYGQGNTILPSSPDWDSLYSLFLPMPGTRQIIVADIEKVQTSCGFGVPLYEYQGQRQTLVNWASKKGEEGVREYQQKKNLVSIDGLPTPLSKLS, MDIIERITKLKNEKNAVILAHNYQPEEIQKIADIIGDSLELCIAARDTDADVIVFCGVDFMAETAKVLNSGKKVLIPEIIETDCPMAHQLPPEIILEAKKKNPDAKVVIYVNTLASAKALADATCTSANADKVVNSFEEDEILFGPDNNLGYFVSKRSNKKIIPMPEGGHCYVHKMFTLDDAKAVKEKYPNAELLIHPESDPKLQETADYVMSTGGMVKHVLNSECSEFIIGTECDMISRLKIELEKAGKSKKLIPLRTDAICKSMKNITLEKIEKCLLEEKHEIMLDEKIIENARKAIERMLSILEHHHHHH, EHIKQKNSEIAELTLQNQRDADSVEYYKALVSQDEKQKVLIHDIKKHLNAIASLNEQHDSEKIAAYLTHVLGSSELKHSVRVCDNDLLNALLCRYQKICLTKKIALHIDIRSKCIDFVTYDDLSVLFGNLMDNAVESAEKTVNPFIELNVFHKENNNMTIITLIDSCRVNPIDKNGNLLPTKKPNPQFHGFGMRSIENIVKKYNGEMTFYFDDPTKTFHTIIMLRH, MTTIGTRKRVAVVTGASSGIGEATARTLAAQGFHVVAVARRADRITALANQIGGTAIVADVTDDAAVEALARALSRVDVLVNNAGGAKGLQFVADADLEHWRWMWDTNVLGTLRVTRALLPKLIDSGDGLIVTVTSIAAIEVYDGGAGYTAAKHAQGALHRTLRGELLGKPVRLTEIAPGAVETEFSLVRFDGDQQRADAVYAGMTPLVAADVAEVIGFVATRPSHVNLDQIVIRPRDQASASRRATHPVR, MRLSDAEILHELRHTPLKELGERAYEVKKRLHPKRITTFVVDRNINYTNICWVDCKFCAFKRKLSQEETYILSFEEIDRKIEELIAIGGTQILFQGGVHPELKIEWYENLVSHIAQKFPEITIHGFSAIEVDYIARLSKLSLKETLQRLQAAGLSSIPGAGAEILSDRVRDIIAPKKLSADRWIEVHRTAHQIGMKSTATMMFGTIEEEEDIIEHWRRIRELQEETGGFRAFILWSFQPHHTPLKAEFPHLQKSSSNRYLRLLAASRLYLDNFPNLQSSWVTQGSYIGQMALLFGANDLGSTMMEENVVSAAGARNQMNQEEMIALIKDVGELPAKRNTAYEILERY, MLKLYVLVYKGEPLDYHEYRHTALYLKLPDNQSFIMHILGTQGMFEYAQIKNKDPSVVGSLAKVVPVADISEVIGSGPIQSTVAKTLVQNGPLDLDWNCQHWVGDALSKLAERKYITVAERAEAIDRMMDACLEAMDD, MVDYHYFKSKLNHFYGRYVGYNQRPVFFDIDQTFPELNHITRHFPDIKREFENVQANVKEFPRYHDIDPGESAISNTTEKNWNVFMLYLLGYQLKEARLLCPELCNLLEGIPHLIQAFFSILEPGKSIPLHEGPYIGYLRYHLGIHVPQNNPPQILVNNQTYTWKEGEAVLFDDSWPHEVRNTSDDYRAVLIIDVLRPMPFLPQLVNQFVTHVIARYFYGRKVMKRAMQYGGEVKPLAL

Soluble on expression in E. coli, soluble:
MAHHHHHHMVVVKGTEYYDGRTKNYVDYPITDVLQMVGRAGRPQFDTEGVAQVLCHEPKKGFYRKFLYDPFPVESTLHKQLHVHINAEIVAGTITTRQDAVDYLTWTYLFRRLVKNPSYYGVEDRSPKAVTIFISTLVANVLDELEACGCIASPGDDEEDDVSRKVTGMSAAGGTDDEKDPDALTCTVLGRLCSYYYLSHKTVRYFDAHIGADSSHVDVLKALCEAEEFNELPVRHNEDKLNLVLSQLLPFPINPNNAESPHVKAFLLFQAHFERASLPISDYYTDLKSALDNAVRVVQAMVDITSNNGHLYAALRCMSLLQCMVQGIWWHSSTLLQIPHVTAGMLPVIASRCGNLEHAAQVANSSITALQTLKAVLREDCGLSETQLREAMAAIQGFPLIDVRLCLSRTPDRTSNSGDAEHSDDGSKTAADVTYTLTVHLTRLSVHNKHVVAPHFTKPKDEQYWLVVGNEKTGELIALKRVNRLVNCVELTLSFEWDDEWAEFAEGGAVALSLYVVCDSYVGLDQQYNFSVPVPVDM, DGKRVWLSDDELTRFIEQAETPHQRLAFLLAGRVGLRRSEIIEVCPQDLVDGPTGDHIRVWESYAKRDKYREPPVPQEVVTIAETLAYQQDDDEPLLDVAGSTVYRWVRRAADELEEETGDRGWQYLDVHDLRRTWGTYLLEQGVIPSVVMSFGGWEDWDTFRKHYLGEFS, MDRTTPWQQQPIRYSADLEKPSPREQADIEKIMAKLLKNNERAYDKYKHGLRDAHAKSHAILRGELIVNEGLPPELAQGLFAEPRTYPVIARLSSTSGVRRSDKTRGVRGLGLKVLGVQGEKILPDDSSTNQDFVMVTHEDFLFADAHAYAGLGMITASLLARLSDQALWLGSGLLDLVSKAGIKLPDNLMVFVAPNRPILGLEFFSSAPFRHGDHVAKYRFAPASENVKALSGQLLPRNPAPEQHRDMIAEFFADQTAEFDFSAQLCTDPVAMPIEDAGKNWDKSISPYVSVAKIVFGPQNPYSALRRAYGDDVLAFNSWRGLAEHRPLGSINRLKKTVYESSADYRHRVNRIDRHEPVDISELPDLEHHHHHH, ANQPDWADEAANGAHQDAWKSLKARVENVYYMVKATYKNDPVWGNDFTCVGVMANDVNEDEKSIQAEFLFMNNADTNMQFATEKVTAVKMYGYNRENAFRYETEDGQVFTDVIAYSDDNCDVIYVPGTDGNEEGYELWTTDYDNIPANCLNKFNEYAVGRETRDVFTSACLE, YEVKVKLADIQADPNSPLYSAKSFDELGLAPELLKGIYAMKFQKPSKIQERALPLLLHNPPRNMIAQSQSGTGKTAAFSLTMLTRVNPEDASPQAICLAPSRELARQTLEVVQEMGKFTKITSQLIVPDSFEKNKQINAQVIVGTPGTVLDLMRRKLMQLQKIKIFVLDEADNMLDQQGLGDQCIRVKRFLPKDTQLVLFSATFADAVRQYAKKIVPNANTLELQT, MTAIAPVITIDGPSGAGKGTLCKAMAEALQWHLLDSGAIYRVLALAALHHHVDVASEDALVPLASHLDVRFVSTNGNLEVILEGEDVSGEIRTQEVANAASQVAAFPRVREALLRRQRAFRELPGLIADGRDMGTVVFPDAPVKIFLDASSEERAHRRMLQLQEKGFSVNFERLLAEIKERDDRDRNRAVAPLVPAADALVLDSTTLSIEQVIEKALQYARQKLALA, SIPAGITAAYIHKGHDTTHGGGEMVLEVPHDKTIPVLRFLRDHSSCLYDCFIDCTAADFPQKPQRFRVVYNLLSLKYSSRIRVQTHVDEVTPIESATCLFKGANWPEREVWDLFGVFFYNHPDLRRILTDYGFEGHPLRKDFPLSGYVEVRYDDTEKRVVIEPVEITQEYRAFDYTSPWEVFPEGGNFEEAEKLPERV, MDREALLQAVKEARELAKPRNFTQSFEFIATLKEIDMRKPENRIKTEVVLPHGRGKEAKIAVIGTGDLAKQAEELGLTVIRKEEIEELGKNKRKLRKIAKAHDFFIAQADLMPLIGRYMGVILGPRGKMPKPVPANANIKPLVERLKKTVVINTRDKPYFQVLVGNEKMTDEQIVDNIEAVLNVVAKKYEKGLYHIKDAYVKLTMGPAVKVKKEKAKKK, GMPIIIDKDLPARKVLQEENIFVMTKERAETQDIRALKIAILNLMPTKQETEAQLLRLIGNTPLQLDVHLLHMESHLSRNVAQEHLTSFYKTFRDIENEKFDGLIITGAPVETLSFEEVDYWEELKRIMEYSKTNVTSTLHICWGAQAGLYHHYGVQKYPLKEKMFGVFEHEVREQHVKLLQGFDELFFAPHSRHTEVRESDIREVKELTLLANSEEAGVHLVIGQEGRQVFALGHSEYSCDTLKQEYERDRDKGLNIDVPKNYFKHDNPNEKPLVRWRSHGNLLFSNWLNYYVYQETPYVL, MAHHHHHHMPSWCLIESDPAVFTELIQRFGAQGVAVEEIVQLEQEYLRVHTNVYGLILLFKWKARKEGAATDGVVVPDAPVFFVQQTVNNACATLSIVNILLNHKESIELGEVLGNFLSFTQDMNPYLRGTQVGECDALREAHNSFAPVELFSLDHSVPDAGDAYHFVSFVYKNSAIWELDGLQEGPILASDASDENYRDKLMEVVRKRIRDHSAEDTTGAGQGISFSLMAVVDDPLVLLERRIYEATLQEAPTHYLEEQLNQLTKQRAREKLENQRRRHNYVPMIVELLKALAEKGQLKGILDDALAKKSGQGAKQ
